From the supplement of paper PMC6757056
± gives the standard deviation of the averaged measurements.

B1: library; a variant is named by its letters at N, in order (parent)
chain: GCUGUCACCGGUGUAUUACCCUAGUGGUCGACCGGUCUGAUGAGUCUNNNNNNAGACGAAACAGC

How the values were obtained:
hypoxanthine [1] = variants of: B1; test: FACS-Seq fitted mean relative fluorescence mCherry/BFP without ligand (log10 relative fluorescence); ligand: hypoxanthine (xanthine aptamer); higher = higher reporter protein expression; details: HEK293T, ligand present: no
How it was run: (§1)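 The ribozyme switch sat in an mCherry reporter, delivered by lentivirus into HEK293T libraries along with an EF1α-BFP marker. Enriched cells were incubated 48 h with or without ligand, sorted into 6 bins by mCherry/BFP, and bin genomic DNA was PCR-amplified, barcoded and MiSeq-sequenced. Fluorescence equals the fitted normal mean of the bin counts after normalization. Those log10(mCherry/BFP) means were scaled to five spiked-in control ribozymes.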

hypoxanthine [2] = variants of: B1; test: normalized RNA/DNA level with ligand (relative to sTRSVctl = 100) (log10 (% of sTRSVctl)); ligand: hypoxanthine (xanthine aptamer); higher = less ribozyme self-cleavage, higher mRNA level; details: ligand concentration (+) RNA-Seq: 5 mM, HEK293T, reporter: mCherry (pCS4076), ligand present: yes
Experimental: (§2)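 Hammerhead (sTRSV) ribozyme switch libraries with a ligand aptamer grafted on stem I and a randomized N4-6 loop II, cloned into the 3' UTR of mCherry and transiently transfected into HEK293T cells; RNA-Seq 72 h post transfection with ligand added 1 h before transfection; RNA read count / plasmid DNA read count normalized to the non-cleaving sTRSVctl (x100), log10; sequences with >100 DNA reads. FACS-Seq: lentiviral library sorted into 6 bins after 48 h ligand, log-normal fit mean of mCherry/BFP scaled to controls. Printed sequences are partial switch sequences.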

hypoxanthine [3] = variants of: B1; test: normalized RNA/DNA level without ligand (relative to sTRSVctl = 100) (log10 (% of sTRSVctl)); ligand: hypoxanthine (xanthine aptamer); higher = less ribozyme self-cleavage, higher mRNA level; details: HEK293T, reporter: mCherry (pCS4076), ligand present: no
Experimental: as §2

hypoxanthine [4] = variants of: B1; test: FACS-Seq fitted mean relative fluorescence mCherry/BFP with ligand (log10 relative fluorescence); ligand: hypoxanthine (xanthine aptamer); ligand concentration (+) FACS-Seq: 5 mM; higher = higher reporter protein expression; details: HEK293T, ligand present: yes
How it was run: as §1

GAGAAG was tested, and the “FACS-Seq fitted mean (log10)” value (hypoxanthine [1]) was -0.406 ± 0.0075, the “normalized RNA/DNA level with ligand (log10)” value (hypoxanthine [2]) was 1.55 ± 0.017 and the “normalized RNA/DNA level without ligand (log10)” value (hypoxanthine [3]) was 1.05 ± 0.024. The “FACS-Seq fitted mean (log10)” value (hypoxanthine [4]) was 0.342 ± 0.037.

GAGAAU was tested, and the “FACS-Seq fitted mean (log10)” value (hypoxanthine [1]) was 0.4579 ± 0.0037, the “normalized RNA/DNA level with ligand (log10)” value (hypoxanthine [2]) was 1.91 ± 0.021 and the “normalized RNA/DNA level without ligand (log10)” value (hypoxanthine [3]) was 1.67 ± 0.023. The “FACS-Seq fitted mean (log10)” value (hypoxanthine [4]) was 0.611 ± 0.05.

In the case of CACUGG, the “FACS-Seq fitted mean (log10)” value (hypoxanthine [1]) is reported as 0.504 ± 0.03, the “normalized RNA/DNA level with ligand (log10)” value (hypoxanthine [2]) is reported as 1.9 ± 0.019 and the “normalized RNA/DNA level without ligand (log10)” value (hypoxanthine [3]) is reported as 1.43 ± 0.16. For the same variant, the “FACS-Seq fitted mean (log10)” value (hypoxanthine [4]) was 0.709 ± 0.016.

For AAGCCG, the “FACS-Seq fitted mean (log10)” value (hypoxanthine [1]) was 0.00433 ± 0.082, the “normalized RNA/DNA level with ligand (log10)” value (hypoxanthine [2]) was 1.728 ± 0.013 and the “normalized RNA/DNA level without ligand (log10)” value (hypoxanthine [3]) was 1.26 ± 0.04. For the same variant, the “FACS-Seq fitted mean (log10)” value (hypoxanthine [4]) was 0.4844 ± 0.0029.

For AAGCCA, the “FACS-Seq fitted mean (log10)” value (hypoxanthine [1]) was -0.28 ± 0.034, the “normalized RNA/DNA level with ligand (log10)” value (hypoxanthine [2]) was 1.94 ± 0.039 and the “normalized RNA/DNA level without ligand (log10)” value (hypoxanthine [3]) was 1.76 ± 0.021. The “FACS-Seq fitted mean (log10)” value (hypoxanthine [4]) was 0.134 ± 0.017.

For CAGAGA, the “FACS-Seq fitted mean (log10)” value (hypoxanthine [1]) was 0.37782 ± 0.00012, the “normalized RNA/DNA level with ligand (log10)” value (hypoxanthine [2]) was 1.892 ± 0.0089 and the “normalized RNA/DNA level without ligand (log10)” value (hypoxanthine [3]) was 1.659 ± 0.0052. For the same variant, the “FACS-Seq fitted mean (log10)” value (hypoxanthine [4]) was 0.696 ± 0.03.

CAGAGG was tested, and the “FACS-Seq fitted mean (log10)” value (hypoxanthine [1]) was 0.273 ± 0.0028, the “normalized RNA/DNA level with ligand (log10)” value (hypoxanthine [2]) was 1.813 ± 0.0092 and the “normalized RNA/DNA level without ligand (log10)” value (hypoxanthine [3]) was 1.21 ± 0.06. For the same variant, the “FACS-Seq fitted mean (log10)” value (hypoxanthine [4]) was 0.702 ± 0.048.

CACUAA was tested, and the “FACS-Seq fitted mean (log10)” value (hypoxanthine [1]) was 0.376 ± 0.014, the “normalized RNA/DNA level with ligand (log10)” value (hypoxanthine [2]) was 1.8618 ± 0.00057 and the “normalized RNA/DNA level without ligand (log10)” value (hypoxanthine [3]) was 1.74 ± 0.025. For the same variant, the “FACS-Seq fitted mean (log10)” value (hypoxanthine [4]) was 0.456 ± 0.0093.

With AACUUU the “FACS-Seq fitted mean (log10)” value (hypoxanthine [1]) was 0.233 ± 0.078, the “normalized RNA/DNA level with ligand (log10)” value (hypoxanthine [2]) was 1.92 ± 0.038 and the “normalized RNA/DNA level without ligand (log10)” value (hypoxanthine [3]) was 1.9 ± 0.058. The “FACS-Seq fitted mean (log10)” value (hypoxanthine [4]) was 0.348 ± 0.087.

With AACUUA the “FACS-Seq fitted mean (log10)” value (hypoxanthine [1]) was 0.394 ± 0.02, the “normalized RNA/DNA level with ligand (log10)” value (hypoxanthine [2]) was 1.9 ± 0.021 and the “normalized RNA/DNA level without ligand (log10)” value (hypoxanthine [3]) was 1.857 ± 0.013. The “FACS-Seq fitted mean (log10)” value (hypoxanthine [4]) was 0.581 ± 0.02.

In the case of AACUUG, the “FACS-Seq fitted mean (log10)” value (hypoxanthine [1]) is reported as 0.597 ± 0.037, the “normalized RNA/DNA level with ligand (log10)” value (hypoxanthine [2]) is reported as 1.87 ± 0.027 and the “normalized RNA/DNA level without ligand (log10)” value (hypoxanthine [3]) is reported as 1.54 ± 0.03. The “FACS-Seq fitted mean (log10)” value (hypoxanthine [4]) was 0.726 ± 0.1.

For GAGCCA, the “FACS-Seq fitted mean (log10)” value (hypoxanthine [1]) was -0.0202 ± 0.12, the “normalized RNA/DNA level with ligand (log10)” value (hypoxanthine [2]) was 1.93 ± 0.066 and the “normalized RNA/DNA level without ligand (log10)” value (hypoxanthine [3]) was 1.76 ± 0.018. For the same variant, the “FACS-Seq fitted mean (log10)” value (hypoxanthine [4]) was 0.234 ± 0.1.

With UACGCA the “FACS-Seq fitted mean (log10)” value (hypoxanthine [1]) was -0.76 ± 0.081, the “normalized RNA/DNA level with ligand (log10)” value (hypoxanthine [2]) was 1.924 ± 0.0096 and the “normalized RNA/DNA level without ligand (log10)” value (hypoxanthine [3]) was 1.82 ± 0.019. The “FACS-Seq fitted mean (log10)” value (hypoxanthine [4]) was -0.297 ± 0.075.

With CACGCU the “FACS-Seq fitted mean (log10)” value (hypoxanthine [1]) was 0.785 ± 0.049, the “normalized RNA/DNA level with ligand (log10)” value (hypoxanthine [2]) was 1.93 ± 0.034 and the “normalized RNA/DNA level without ligand (log10)” value (hypoxanthine [3]) was 1.87 ± 0.021. The “FACS-Seq fitted mean (log10)” value (hypoxanthine [4]) was 0.774 ± 0.079.

With UAGAAG the “FACS-Seq fitted mean (log10)” value (hypoxanthine [1]) was 0.421 ± 0.0051, the “normalized RNA/DNA level with ligand (log10)” value (hypoxanthine [2]) was 1.858 ± 0.0066 and the “normalized RNA/DNA level without ligand (log10)” value (hypoxanthine [3]) was 1.47 ± 0.022. The “FACS-Seq fitted mean (log10)” value (hypoxanthine [4]) was 0.577 ± 0.057.

In the case of UAGAAU, the “FACS-Seq fitted mean (log10)” value (hypoxanthine [1]) is reported as 0.3304 ± 0.003, the “normalized RNA/DNA level with ligand (log10)” value (hypoxanthine [2]) is reported as 1.9 ± 0.023 and the “normalized RNA/DNA level without ligand (log10)” value (hypoxanthine [3]) is reported as 1.72 ± 0.03. For the same variant, the “FACS-Seq fitted mean (log10)” value (hypoxanthine [4]) was 0.6203 ± 0.0037.

With UAGAAA the “FACS-Seq fitted mean (log10)” value (hypoxanthine [1]) was 0.355 ± 0.024, the “normalized RNA/DNA level with ligand (log10)” value (hypoxanthine [2]) was 1.88 ± 0.052 and the “normalized RNA/DNA level without ligand (log10)” value (hypoxanthine [3]) was 1.702 ± 0.013. For the same variant, the “FACS-Seq fitted mean (log10)” value (hypoxanthine [4]) was 0.469 ± 0.053.

In the case of UAGAAC, the “FACS-Seq fitted mean (log10)” value (hypoxanthine [1]) is reported as 0.437 ± 0.028, the “normalized RNA/DNA level with ligand (log10)” value (hypoxanthine [2]) is reported as 1.93 ± 0.031 and the “normalized RNA/DNA level without ligand (log10)” value (hypoxanthine [3]) is reported as 1.809 ± 0.014. The “FACS-Seq fitted mean (log10)” value (hypoxanthine [4]) was 0.578 ± 0.076.
